Here are results for 16 molecules from patent publication US20230263916A1 (NANOMAB TECHNOLOGY, published 2023).

For assay [1], the target named is T1, human Her2 (ECD)-Fc protein (human, UniProt P04626 23-652).
T1 construct: extracellular domain; Made in HEK293F cells; also called hHer2 (ECD)-Fc antigen; Her2 (ECD)-Fc antigen; not shown: TEV restriction site at the C-terminal of hHer2 (ECD); IgG1 Fc of the pFUSE-IgG1 vector
Briefly: PE-ELISA, A405 of antigen well over control well. How it is done: (§1) (1) 10 μg Her2 (ECD)-Fc antigen (10 μg Fc in NaHCO₃ as control) dissolved in 100 mM NaHCO₃ (pH 8.2) was coupled to a NUNC plate then incubated at 4° C. overnight.
(§2) (5) The unbound antibody was washed off with PBST.
(§3) (6) When the OD value of the sample was over 3 times of the OD value of the control sample (Ratio+/−>3), the tested sample was determined to be a positive clone. […] Then all the positive clones were transferred to LA medium for plasmid extraction and sequencing.
A general note: ELISA stands for enzyme-linked immunosorbent assay.

The target in assay [2] is T2, human HER2 antigen protein (human, UniProt P04626 23-652).
T2 construct: Antigen coated in the ELISA of Embodiment 5 and immobilised on the CM-5 chip in Embodiment 7; Embodiment 7 says only 'antigen protein Her2' without species or construct; also called antigen protein Her2
The assay can be described thus: Biacore, Her2 immobilised on CM-5 chip. How it is done: (1) Immobilization: the stationary phase antigen protein Her2 was immobilized on the surface of CM-5 sensor chip by carboxyl amino reaction.
(3) Chip regeneration: when next antibody was determined, the chip was washed with 10 mM Glycine.

For assay [3], the target named is T3, Her2 on cells (BT474, high expression; MDA-MB-231, low expression) (UniProt P04626 23-1255, limits assumed).
T3 construct: whole, on cells; Endogenous Her2 of tumour cell lines
The assay can be described thus: flow cytometry on MDA-MB-231 cells (low Her2), anti-HA Alexa Fluor488. The procedure: (§4) (3) Cells were divided into 96-well plates after washing, where number of cells per sample was 3×10⁵. The dilute nanobodies were then added to each well, mixed and placed at 4° C. for 20 min.
(§5) (4) Cells were washed twice with PBS and resuspended with 100 uL PBS. […] Mouse anti-HA Alexa Fluor488 labeled antibody was then added to each sample, mixed and placed at 4° C. for 20 min.
(§6) (5) Cells were washed twice with PBS and then resuspended to the flow tube with 300 uL PBS. Samples were kept on ice in dark condition. Detection was held via machine.

Assay [4] addresses T3, Her2 on cells (BT474, high expression; …). Briefly: flow cytometry on BT474 cells (high Her2), anti-HA Alexa Fluor488. How it is done: as §4, §5, §6
A general note: Flow cytometry measures light scatter and fluorescence of single cells or particles in a stream.

In assay [5] the target is T1, human Her2 (ECD)-Fc protein. The assay can be described thus: PE-ELISA, crude extract on antigen-coated plate. How it is done: as §1, §2, §3

B1: Nanobody No. 17 (VHH)
VHH: QVQLQESGGGSVQAGGSLRLSCTASGFTFDDSDMGWYRQAPGNECELVSTISSDGSTYYADSVKGRFTISQDNAKNTVYLQMNSLKPEDTAVYYCADVQIPYGLGTCESLDYWGRGTQVTVSS
notes: camel VHH from pMECs phage display vector; also called Antibody no; 17; not shown: tags (HA, His) implied by anti-HA detection and nickel column
Regarding B1, the “Ratio(+/-)” value in assay [1] came to 23.8. Further, in assay [2], binding was put at a Kd of 6.68 nM; the koff (commonly the rate constant with which the complex falls apart) worked out at 0.00421 s⁻¹; the kon (as a rule, the second-order rate constant of association) came out at 631000 M⁻¹ s⁻¹. Also, in assay [3], the positive rate worked out at 12.3%. In assay [4], the positive rate turned out to be 99.9%. For the same molecule, the “A405+” value in assay [5] is 1.88 A405.

B2: Nanobody No. 13 (VHH)
VHH: QVQLQESGGGSVQAGETLRLSCTASGFTFDDSDMGWYRQAPGNECELVSTISADGSTFYADSVKGRFTISQDNAKNTVYLQMNSLKPEDTAVYYCASPENEYELGTCEALDYWGQGTQVTVSS
notes: camel VHH from pMECs phage display vector; also called Antibody no; 13; not shown: tags (HA, His) implied by anti-HA detection and nickel column
B2: the “Ratio(+/-)” value in assay [1] is 25.1. Besides, in assay [2], the Kd – broadly, the constant that tells how readily two partners part at equilibrium – was 1.18 nM; the koff came to 0.0015 s⁻¹; the kon was found to be 1.27e+06 M⁻¹ s⁻¹. This molecule had a positive rate in assay [3] of 14.2%. In addition, the positive rate in assay [4] is 99.9%. In addition, the “A405+” value in assay [5] was 2.24 A405.

B3: Nanobody No. 23 (VHH)
VHH: QVQLQESGGGSVQAGGSLKLSCSASGFTFDDTDMGWYRQAPGNECELVSTISSDGTTYYTDSVKGRFTISQDNAKNTVYLQMNSLKPEDTAVYYCAAINSGYELGTCESLDYWGRGTQVTVSS
notes: camel VHH from pMECs phage display vector; also called Antibody no; 23; not shown: tags (HA, His) implied by anti-HA detection and nickel column
For the molecule B3, the “Ratio(+/-)” value in assay [1] was 17.1. In assay [2], this molecule gave a Kd of 3.73 nM, a koff of 0.00255 s⁻¹ and an association rate constant (kon) of 682000 M⁻¹ s⁻¹. For the same molecule, in assay [3], the positive rate was determined as 11.5%. The same molecule returned a positive rate in assay [4] of 99.9%. The “A405+” value in assay [5] is 1.77 A405.

B4: Nanobody No. 26 (VHH)
VHH: QVQLQESGGGSVQAGETLRLSCTASGFTFDDSDMGWYRQAPGNECELVSSISSDGSTYYADSVKGRFTISQDNAKNTVYLQMNSLKPEDTGVYYCAAEGHRYELGTCAALDYWGRGTQVTVSS
notes: camel VHH from pMECs phage display vector; also called Antibody no; 26; not shown: tags (HA, His) implied by anti-HA detection and nickel column
As to B4, the “Ratio(+/-)” value in assay [1] was 21.1. Moreover, in assay [2], the Kd was 1.31 nM, the koff was determined as 0.00112 s⁻¹ and the kon was determined as 857000 M⁻¹ s⁻¹. This molecule also came in with a positive rate in assay [3] of 16.7%. In addition, the positive rate in assay [4] was 99.9%. For the same molecule, the “A405+” value in assay [5] turned out to be 1.9 A405.

B5: Nanobody No. 22 (VHH)
VHH: QVQLQESGGGSVQAGGSLRLSCTASGFTFDDSDMGWYRQAPGNECELVSRISRDGTTYYADSVKGRFTISQDNAKNTVYLQMNSLKPEDTAVYYCADINSGYELGTCESLDYWGRGTQVTVSS
notes: camel VHH from pMECs phage display vector; also called Antibody no; 22; not shown: tags (HA, His) implied by anti-HA detection and nickel column
For B5, the “Ratio(+/-)” value in assay [1] worked out at 21.3. Further, in assay [2], binding was put at a Kd of 1.98 nM, the koff was 0.0019 s⁻¹ and the kon came to 957000 M⁻¹ s⁻¹. In assay [3], this molecule registered a positive rate of 5.8%. In addition, in assay [4], the positive rate was 99.7%. In assay [5], the “A405+” value amounted to 1.78 A405.

B6: Nanobody No. 38 (VHH)
VHH: QVQLQESGGGSVQAGGSLRLSCAASGFTYTGYCMGWFRQAPGKEREGVATVDSDGDTSYADSVKGRFTISKDNAKNTLYLQMNSLKPEDTAMYYCAADFSRWHLCSTSLATLGYWGQGTQVTVSS
notes: also called 38; not shown: tags (HA, His) implied by anti-HA detection and nickel column
As for B6, the “Ratio(+/-)” value in assay [1] worked out at 21.8. In addition, the “A405+” value in assay [5] was 2.14 A405.

B7: Nanobody No. 33 (VHH)
VHH: QVQLQESGGGSVQAGGSLRLSCTASGFTFDDVDMGWYRQAPGNECELVSTISSDGSTYYADSVKGRFTISQDNAKNTVYLQMNSLKPEDTAMYYCAAARYSDYEGMCGYWSQGTQVTVSS
notes: also called 33; not shown: tags (HA, His) implied by anti-HA detection and nickel column
On to B7, for which the “Ratio(+/-)” value in assay [1] turned out to be 21.3. Further, the “A405+” value in assay [5] is 2.05 A405.

B8: Nanobody No. 36 (VHH)
VHH: QVQLQESGGGSVQAGESLRLSCRTSGFSFDDVDMGWYRQAPGNECELVSTISSDGSTYYADSVKGRFTISQDNAKNTVYLQMNSLKPEDTAMYYCAAARYSDYEGMCGYWSQGTQVTVSS
notes: also called 36; not shown: tags (HA, His) implied by anti-HA detection and nickel column
Turning to B8, in assay [1], the “Ratio(+/-)” value was determined as 21.6. In assay [5], the “A405+” value was determined as 2.22 A405.

B9: Nanobody No. 32 (VHH)
VHH: QVQLQESGGGSVQAGGSLRLSCTASGFTFDDVDMGWYRQASGNECELVSTISSDGSTYYADSVKGRFTISQDNAKNTVYLQMNSLKPEDTAMYYCAAARYSDYEGMCGYWSQGTQVTVSS
notes: also called 32; not shown: tags (HA, His) implied by anti-HA detection and nickel column
With B9, the “Ratio(+/-)” value in assay [1] stood at 25.3. Further, in assay [5], the “A405+” value was found to be 2.36 A405.

B10: Nanobody No. 35 (VHH)
VHH: QVQLQESGGGLVQPGGSLRLSCAASGFTFDDVDMGWYRQAPGNECELVSTISSDGSTYYADSVKGRFTISQDNAKNTVYLQMNSLKPEDTAMYYCAAARYSDYEGMCGYWSQGTQVTVSS
notes: also called 35; not shown: tags (HA, His) implied by anti-HA detection and nickel column
Turning to B10, the “Ratio(+/-)” value in assay [1] turned out to be 21. In addition, the “A405+” value in assay [5] was 1.99 A405.

B11: Nanobody No. 34 (VHH)
VHH: QVQLQESGGGSVQAGGSLRLSCTVSGFTFDDVDMGWYRQAPGNECELVSTISSDGSTYYADSVKGRFTISQDNAKNTVYLQMNSLKPEDTAMYYCAAARYSDYEGMCGYWSQGTQVTVSS
notes: also called 34; not shown: tags (HA, His) implied by anti-HA detection and nickel column
In the case of B11, the “Ratio(+/-)” value in assay [1] was 20. In addition, the “A405+” value in assay [5] worked out at 2.26 A405.

B12: Nanobody No. 37 (VHH)
VHH: QVQLQESGGGSVQAGETLRLSCTVSGFTFDDADMGWYRQAPGNQCELVSTISSDGITYYADSVKGRFTVSQDNAKNTVYLQMNSLKPEDTAMYYCAAARYSDYEGMCGYWSQGTQVTVSS
notes: also called 37; not shown: tags (HA, His) implied by anti-HA detection and nickel column
In the case of B12, the “Ratio(+/-)” value in assay [1] is 19.6. Also, in assay [5], the “A405+” value is 2.1 A405.

B13: Nanobody No. 39 (VHH)
VHH: QVQLQESGGGSVQAGGSLRLSCAASGYTYTGYCMGWFRQAPGKEREGVATIDSDGDTSYADSVKGRFTISKDNAKNTLYLQMNSLKPEDTAMYYCAADFRRWHLCSSSFREDGMDYWGKGTQVTVSS
notes: also called 39; not shown: tags (HA, His) implied by anti-HA detection and nickel column
Turning to B13, the “Ratio(+/-)” value in assay [1] came to 17.8. Moreover, the “A405+” value in assay [5] was determined as 1.86 A405.

B14: Nanobody No. 40 (VHH)
VHH: QVQLQESGGGSVQAGETLRLSCAASGYTYTGYCMGWFRQATGKEREGVATIDSDGDTTYADSVKGRFTISKDNGKNTLYLQMNSLKPEDTAMYYCAADFRRWHLCSSSFQEYDMDYWGKGTQVTVSS
notes: also called 40; not shown: tags (HA, His) implied by anti-HA detection and nickel column
Take B14: in assay [1], the “Ratio(+/-)” value was found to be 19.1. The “A405+” value in assay [5] is 1.57 A405.

B15: Nanobody No. 9 (VHH)
VHH: QVQLQESGGGSVQAGETLRLSCTASGFTFDDSDMGWYRQAPGSECELVSTISSDGNTYYSNSVKGRFTISQDNAKNTVYLQMNSLKPEDTAVYYCAADDQHYELGTCEALDYWGRGTQVTVSS
notes: camel VHH from pMECs phage display vector; also called Antibody no; not shown: tags (HA, His) implied by anti-HA detection and nickel column
As for B15, in assay [1], the “Ratio(+/-)” value came to 24.3. In assay [2], this molecule came in with a Kd of 3.6 nM, a koff of 0.00397 s⁻¹ and a kon of 1.11e+06 M⁻¹ s⁻¹. In assay [3], the positive rate worked out at 9.5%. The same molecule showed a positive rate in assay [4] of 99.8%. In assay [5], the “A405+” value came to 2.15 A405.

B16: Nanobody No. 10 (VHH)
VHH: QVQLQESGGGSVQAGETLKLSCTASGFTFDDSTMAWYRQAPGNECKLVSTISSDGSTYYADSVKGRFTISQDNAKNTVYLQMNSLKPEDTAVYYCAADDQNYELGTCEALDYWGRGTQVTVSS
notes: camel VHH from pMECs phage display vector; also called Antibody no; 10; not shown: tags (HA, His) implied by anti-HA detection and nickel column
Regarding B16, the “Ratio(+/-)” value in assay [1] was determined as 22.4. Also, in assay [2], binding was put at a Kd of 6.47 nM, the koff was 0.00457 s⁻¹ and the kon stood at 706000 M⁻¹ s⁻¹. This molecule returned a positive rate in assay [3] of 10.6%. In assay [4], this molecule came in with a positive rate of 99.7%. The “A405+” value in assay [5] came out at 1.63 A405.
